Results as given in patent US20220340673A1 (HARBOUR BIOMED SUZHOU, published 2022).

Key:
[1] = biological target: T1, human BCMA on cells (HEK293T/huBCMA; NCI-H929) (human, UniProt Q02223 1-184); test: FACS on NCI-H929 cell line [B]
T1 construct: whole, on cells; also called human BCMA molecules on NCI-H929 cell line
T1 sequence (looked up): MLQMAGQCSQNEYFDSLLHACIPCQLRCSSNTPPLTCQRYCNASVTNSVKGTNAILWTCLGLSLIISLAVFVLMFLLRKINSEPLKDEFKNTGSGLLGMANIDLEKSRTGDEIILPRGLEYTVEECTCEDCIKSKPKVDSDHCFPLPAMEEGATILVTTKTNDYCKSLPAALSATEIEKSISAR
Protocol: To study the binding activity of the BCMA arm of the BCMA×CD3 bispecific antibody to human BCMA, NCI-H929 cell line with highly expressed BCMA was used for binding experiments with human BCMA at cellular level. Briefly, NCI-H929 cell suspensions were collected. The cell density was adjusted to 1×10⁶ cells/mL, and the cells were inoculated in 96 well V-bottom plates at 100 μL cells/well (Corning, Cat#: 3894), followed by the addition of test antibodies at 100 μL/well, which is gradient diluted at 3 folds of the concentration with 2 folds of the final concentration. Cells were incubated at 4° C. for 2 hours in the dark. Afterwards, cells were washed twice with 100 μL/well of pre-cooled PBS, centrifuged at 500 g for 5 min at 4° C., and followed by discarding the supernatant. 100 μL/well of fluorescent secondary antibody (Alexa Fluor 488-conjugated AffiniPure Goat Anti-Human IgG, Fcγ Fragment Specific, Jackson, Cat#:109-545-06, 1:500 dilution) was added and incubated at 4° C. for 1 hour in the dark. Cells were washed twice with 100 μL/well of pre-cooled PBS, centrifuged at 500 g, 4° C. for 5 min, and followed by discarding the supernatant. Finally, the cells were resuspended with 200 μL/well of pre-cooled PBS, and the fluorescence luminescence signal values were read by BD FACS CANTOII.

[2] = biological target: T2, cynomolgus monkey BCMA on cells (HEK293T/cynoBCMA) (cynomolgus monkey, UniProt A0A2K5UD97 1-183); test: FACS on HEK293T cell strain overexpressing cynomolgus monkey BCMA [B), (C]
T2 construct: whole, on cells

[3] = biological target: T1, human BCMA on cells (HEK293T/huBCMA; …); test: FACS on HEK293T cell strain overexpressing human BCMA [C]
From the text: To study the in vitro binding activity of the BCMA arm of the BCMA×CD3 bispecific antibody, HEK293T cell strain overexpressing human BCMA (HEK293T/huBCMA) and HEK293T cell strain overexpressing cynomolgus monkey BCMA (HEK293T/cynoBCMA) were used for antibody binding experiments at cellular level. Briefly, HEK293T/huBCMA cells and HEK293T/cynoBCMA cells were digested and resuspended with DMEM complete medium. The cell density of the two was adjusted to 1×10⁶ cells/mL, respectively. Cells were inoculated at 100 μL cells/well in a 96 well V-bottom plate (Corning, Cat#: 3894), followed by the addition of test antibodies at 100 μL/well, which is gradient diluted at 3 folds of the concentration with 2 folds of the final concentration. Cells were incubated at 4° C. for 1 hour in the dark. Afterwards, the cells were washed twice with 100 μL/well of pre-cooled PBS, centrifuged at 500 g for 5 min at 4° C., and followed by discarding the supernatant. 100 μL/well of fluorescent secondary antibody (Alexa Fluor 488-conjugated AffiniPure Goat Anti-Human IgG, Fcγ Fragment Specific, Jackson, Cat#: 109-545-06, 1:500 dilution) was added and incubated for 30 min at 4° C. in the dark. […] Finally, the cells were resuspended with 200 μL/well of pre-cooled PBS, and the fluorescence luminescence signal values were read by BD FACS CANTOII. […]

[4] = biological target: T3, cynomolgus monkey CD3 on cynomolgus monkey T cells (cynomolgus monkey, UniProt Q95LI5 22-198); test: FACS on cynomolgus monkey T cells [B]
T3 construct: whole, on cells; CD3 complex on primary T cells
Protocol: To study the in vitro binding activity of the CD3 arm of the BCMA×CD3 bispecific antibody, human and cynomolgus monkey T cells were used for antibody binding experiments at cellular level. Briefly, the density of human and cynomolgus monkey T cells was adjusted to 1×10⁶ cells/mL, respectively. Cells were inoculated at 100 μL cells/well in a 96 well V-bottom plate (Corning, Cat#: 3894), followed by the addition of test antibodies at 100 μL/well, which is gradient diluted at 3 folds of the concentration with 2 folds of the final concentration. Cells were incubated at 4° C. for 1 hour in the dark. Afterwards, cells were washed twice with 100 μL/well of pre-cooled PBS, centrifuged at 500 g in 4° C. for 5 min, and followed by discarding the supernatant. 100 μL/fluorescent secondary antibody (Alexa Fluor 488-conjugated AffiniPure Goat Anti- Human IgG, Fcγ Fragment Specific, Jackson, Cat#:109-545-06, 1: 500 dilution) was added and incubated for 30 min at 4° C. in the dark. Cells were washed twice with 100 μL/well of pre-cooled PBS, centrifuged at 500 g, 4° C. for 5 min, and followed by discarding the supernatant. Finally, the cells were resuspended with 200 μL/well of pre-cooled PBS, and the fluorescence luminescence signal values were read by BD FACS CANTOII.

T2 sequence (A0A2K5UD97 entry or part of it): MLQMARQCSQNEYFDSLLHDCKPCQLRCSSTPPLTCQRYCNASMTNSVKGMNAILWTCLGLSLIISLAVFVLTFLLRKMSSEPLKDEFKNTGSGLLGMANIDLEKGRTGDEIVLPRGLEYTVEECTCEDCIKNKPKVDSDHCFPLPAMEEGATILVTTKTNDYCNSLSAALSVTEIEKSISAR
T3 sequence (Q95LI5 22-198): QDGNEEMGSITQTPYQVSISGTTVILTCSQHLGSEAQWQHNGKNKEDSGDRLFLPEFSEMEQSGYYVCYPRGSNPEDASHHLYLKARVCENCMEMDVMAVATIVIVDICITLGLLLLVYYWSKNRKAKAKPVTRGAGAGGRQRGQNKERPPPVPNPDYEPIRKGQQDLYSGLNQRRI

B1: positive control 2, PR002199 (anti-BCMA (TNB308902) x CD3 (TNB_F2B) bispecific antibody) (bispecific antibody, human IgG1, kappa, L234A L235A)
heavy 1: EVQLVESGGGLVQPGRSLRLSCAASGFTFDDYAMHWVRQAPGKGLEWVSGISWNSGSIGYADSVKGRFTISRDNAKNSLYLQMNSLRAEDTALYYCAKDSRGYGDYRLGGAYWGQGTLVTVSSASTKGPSVFPLAPSSKSTSGGTAALGCLVKDYFPEPVTVSWNSGALTSGVHTFPAVLQSSGLYSLSSVVTVPSSSLGTQTYICNVNHKPSNTKVDKKVEPKSCDKTHTCPPCPAPEAAGGPSVFLFPPKPKDTLMISRTPEVTCVVVDVSHEDPEVKFNWYVDGVEVHNAKTKPREEQYNSTYRVVSVLTVLHQDWLNGKEYKCKVSNKALGAPIEKTISKAKGQPREPQVYTLPPCREEMTKNQVSLWCLVKGFYPSDIAVEWESNGQPENNYKTTPPVLDSDGSFFLYSKLTVDKSRWQQGNVFSCSVMHEALHNHYTQKSLSLSPGK
light: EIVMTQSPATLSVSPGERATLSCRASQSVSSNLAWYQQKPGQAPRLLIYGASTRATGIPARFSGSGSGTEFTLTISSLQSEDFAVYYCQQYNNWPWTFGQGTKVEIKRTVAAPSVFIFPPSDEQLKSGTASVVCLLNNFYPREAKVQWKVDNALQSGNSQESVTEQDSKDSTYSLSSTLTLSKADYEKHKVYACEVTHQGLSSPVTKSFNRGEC
heavy 2: EVQLLESGGGLVQPGGSLRLSCAASGFTVSSYGMSWVRQAPGKGPEWVSGIRGSDGSTYYADSVKGRFTISRDNSKNTLYLQMNSLRAEDTAVYYCAKQGENDGPFDHRGQGTLVTVSSGGGGSEVQLLESGGGLVQPGGSLRLSCAASGFTVSSYGMSWVRQAPGKGPEWVSGIRGSDGSTYYADSVKGRFTISRDNSKNTLYLQMNSLRAEDTAVYYCAKQGENDGPFDHRGQGTLVTVSSASEPKSSDKTHTCPPCPAPEAAGGPSVFLFPPKPKDTLMISRTPEVTCVVVDVSHEDPEVKFNWYVDGVEVHNAKTKPREEQYNSTYRVVSVLTVLHQDWLNGKEYKCKVSNKALGAPIEKTISKAKGQPREPQVCTLPPSREEMTKNQVSLSCAVKGFYPSDIAVEWESNGQPENNYKTTPPVLDSDGSFFLVSKLTVDKSRWQQGNVFSCSVMHEALHNHYTQKSLSLSPGK
notes: Three chains: HC1 (anti-CD3 heavy), LC (anti-CD3 kappa light), HC2 (two tandem anti-BCMA VH, then Fc)
- EC50 [1]: 8.7 nM
- binding result [2]: no binding (tested: 100 nM)
- EC50 [3]: 0.602 nM
- binding result [4]: no binding (tested: about 300 nM)
